The chains are these.
B1: Cbx7.V1 chromodomain, His6- and Flag-tagged (designed binder, not shown: small tags and cut ends)
chain: SAIGDDIFAVESIRKKRVRKGKVEYLVKWEGWPLEYSTWEPEEHILDPRLVMAYEEKEERDRASGYRKRGPK
B2: Cbx7.V1 back-mutant E38K, His6- and Flag-tagged (designed binder, not shown: small tags and cut ends)
chain: B1 chain with E35K
B3: Cbx7.V1 back-mutant D8E, His6- and Flag-tagged (designed binder, not shown: small tags and cut ends)
chain: B1 chain with D5E
B4: Cbx7.V1 back-mutant E33K, His6- and Flag-tagged (designed binder, not shown: small tags and cut ends)
chain: B1 chain with E30K
B5: Cbx7.V1 back-mutant I10V, His6- and Flag-tagged (designed binder, not shown: small tags and cut ends)
chain: B1 chain with I7V
B6: Cbx7.V1 back-mutant L37P, His6- and Flag-tagged (designed binder, not shown: small tags and cut ends)
chain: B1 chain with L34P
B7: Cbx7.V1 chromodomain (tags removed) (designed binder)
chain: B1 chain
B8: Cbx7.wt chromodomain (tags removed), O95931 4-75 (protein)
chain: B1 chain with D5E, D6Q, I7V, E30K, L34P, E35K
B9: Cbx7.VD chromodomain (tags removed) (designed binder)
chain: B1 chain with D5E, I7V, L34P, E35K
B10: Cbx7 Q9D chromodomain (tags removed) (designed binder)
chain: B1 chain with D5E, I7V, E30K, L34P, E35K
B11: Cbx7 K33E chromodomain (tags removed) (designed binder)
chain: B1 chain with D5E, D6Q, I7V, L34P, E35K
B12: Cbx8.VD chromodomain (tags removed) (designed binder)
chain: GEDVFAAEALLKRRIRKGRMEYLVKWEGWSQKYSTWEPEENILDARLLAAFEEREREMELYGP
B13: Cbx2.VD chromodomain (tags removed) (designed binder)
chain: GEDVFAAECILSKRLRKGKLEYLVKWEGWSSKHNSWEPEENILDPRLLLAFQKKEHEKEVQNR

Changes are numbered by the printed parent chain. Names and notes keep the numbering of the source.

One test concerns the target H3K9me3 peptide. The test can be described thus: BLI, biotinylated peptide on streptavidin tips, steady state. (BLI is a label-free optical method that tracks binding on a fibre tip over time.)
In general, Kd refers to a measure of binding affinity in units of concentration. High values mean a looser complex, low ones a tighter complex. For B1, the Kd stood at 4.5 µM. Still for that read-out and setting: with B2 the figure was 2 µM; with B3, 5 µM; with B4, 10 µM. The same measure, in the same setting: the figure for B5 is 3.5 µM; for B6 it is 3 µM.

The next test deals with H3K9me3 peptide. The test can be described thus: fluorescence polarization, FITC-peptide 0.5 nM.
On to B7, for which the Kd came out at 7 µM.

In the case of B8, the Kd amounted to 30 µM. Turning to B9, the dissociation constant Kd worked out at 8 µM. Same read-out and setting: with B10 the figure was 10 µM; with B11, 20 µM.

Consider B12, for which the dissociation constant (Kd) was 20 µM. In the case of B13, the Kd amounted to 5 µM.

The target of a further test is H3K9me3 peptide. The test can be described thus: ITC, peptide titrated into the chromodomain, 25 C.
B7: the dissociation constant (Kd) turned out to be 7 µM.

(Values after patent US20260266833A1.)
